Measured values taken from patent US5985278A (Merck Patent Gesellschaft mit Beschrankter Haftung, priority 1994, dated 1999).
Several values for one entry are separate records, joined by “and”; a condition that tells them apart may be missing. Equal entries are not always repeated. Values belong to the molecule of their own block, whether it stands above or below them.

What was measured:
[1] = in vivo; cited from earlier work
[2] = tested on: M21-L, M21-L4 and M21-L-IIb cells; experiment: DNA synthesis ([3H]-thymidine incorporation) in M21 variant lines; format: cell-based, human; conditions: M21-L and M21-LGpIIb, FIG. 9 B, D
Method: (§1) Adherent melanoma cells were detached (0.05% Trypsin/0.02% EDTA). Washed cells were seeded into 96-well flat-bottom microtest plates (1×10^4 cells per well) and cultured without (control) or in the presence of serially diluted antibodies in RPMI medium with 10% FCS. After 48 h, cells were pulse labelled for 18 h (18.5 kBeq [^3 H]-thymidine per well) and harvested. Incorporated radioactivity was measured and expressed as counts per minute.

αvβ3 = target: T1, αvβ3 (Homo sapiens, UniProt P05106+P06756); experiment: Direct competition assay, vitronectin binding to isolated αvβ3; conditions: isolated receptor
T1 construct: αVβ3 was purified from human placenta; from tissue; host or cells: human term placenta
T1 sequence (P06756 31-889 limits assumed): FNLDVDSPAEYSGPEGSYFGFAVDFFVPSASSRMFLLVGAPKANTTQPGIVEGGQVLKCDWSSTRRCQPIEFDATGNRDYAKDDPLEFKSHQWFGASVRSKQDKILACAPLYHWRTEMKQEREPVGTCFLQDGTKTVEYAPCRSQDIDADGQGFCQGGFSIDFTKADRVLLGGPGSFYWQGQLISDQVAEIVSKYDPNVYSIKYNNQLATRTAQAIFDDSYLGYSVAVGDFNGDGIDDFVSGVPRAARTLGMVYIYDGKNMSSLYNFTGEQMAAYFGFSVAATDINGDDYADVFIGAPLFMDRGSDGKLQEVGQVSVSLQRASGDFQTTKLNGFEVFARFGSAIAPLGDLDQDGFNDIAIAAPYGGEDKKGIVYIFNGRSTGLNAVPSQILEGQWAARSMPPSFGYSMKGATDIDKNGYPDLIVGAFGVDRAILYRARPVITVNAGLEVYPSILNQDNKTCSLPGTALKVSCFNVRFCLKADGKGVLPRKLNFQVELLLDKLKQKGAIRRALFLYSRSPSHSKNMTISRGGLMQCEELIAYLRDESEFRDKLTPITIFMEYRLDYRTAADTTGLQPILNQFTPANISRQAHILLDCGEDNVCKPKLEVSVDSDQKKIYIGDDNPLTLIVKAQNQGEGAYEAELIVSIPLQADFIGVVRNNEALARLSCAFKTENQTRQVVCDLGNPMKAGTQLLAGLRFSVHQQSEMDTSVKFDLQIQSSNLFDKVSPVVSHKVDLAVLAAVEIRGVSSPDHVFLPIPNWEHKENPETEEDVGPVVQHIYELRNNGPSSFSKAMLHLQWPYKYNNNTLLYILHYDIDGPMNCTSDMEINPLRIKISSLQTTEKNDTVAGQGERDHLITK
T1 sequence (P06756 891-1048 limits assumed): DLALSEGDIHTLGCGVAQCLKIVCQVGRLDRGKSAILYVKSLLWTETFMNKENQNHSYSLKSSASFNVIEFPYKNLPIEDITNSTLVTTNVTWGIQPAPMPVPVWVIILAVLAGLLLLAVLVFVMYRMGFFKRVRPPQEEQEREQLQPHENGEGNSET
T1 sequence (P05106 27-788): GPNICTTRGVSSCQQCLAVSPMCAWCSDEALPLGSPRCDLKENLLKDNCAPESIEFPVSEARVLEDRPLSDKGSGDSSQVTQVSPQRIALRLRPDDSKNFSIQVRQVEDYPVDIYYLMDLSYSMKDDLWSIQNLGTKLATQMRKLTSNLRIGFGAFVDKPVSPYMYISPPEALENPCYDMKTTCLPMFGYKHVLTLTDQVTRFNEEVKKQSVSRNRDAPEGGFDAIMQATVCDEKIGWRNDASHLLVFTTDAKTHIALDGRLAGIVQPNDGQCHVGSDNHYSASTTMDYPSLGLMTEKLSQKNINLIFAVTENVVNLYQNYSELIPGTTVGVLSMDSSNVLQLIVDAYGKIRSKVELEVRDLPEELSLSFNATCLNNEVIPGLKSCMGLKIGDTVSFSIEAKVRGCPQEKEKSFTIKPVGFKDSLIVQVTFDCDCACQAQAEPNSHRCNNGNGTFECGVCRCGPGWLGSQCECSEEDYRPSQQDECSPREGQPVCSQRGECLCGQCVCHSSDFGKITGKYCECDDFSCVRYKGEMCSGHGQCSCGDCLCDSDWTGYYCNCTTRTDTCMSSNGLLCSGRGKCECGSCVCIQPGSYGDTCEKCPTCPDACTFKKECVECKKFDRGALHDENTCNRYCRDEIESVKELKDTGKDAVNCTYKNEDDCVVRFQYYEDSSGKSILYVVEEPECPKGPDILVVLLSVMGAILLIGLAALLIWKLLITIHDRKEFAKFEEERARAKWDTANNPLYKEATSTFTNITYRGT
Method: The plate was washed once with buffer B (3% BSA (w/v), 100 mM NaCl, 1 mM MgCl2, 1 mM CaCl2, 10 mM MnCl2, 50 mM Tris-HCl; pH 7.4) and incubated 2 h at 20° C. in the same buffer.
After rinsing with buffer C (buffer B with BSA at 0.1% (w/v)) was added containing biotinylated ligand (1 μg ml^-1 end concentration) and serially diluted test peptides or proteins. After incubation (3 h, 30° C.), unbound ligand was washed from the plate by 3 rinses with buffer C, and incubation continued for 1 h with anti-biotin-alkaline phosphatase-conjugated antibody (1:10000 in buffer C) (Sigma) followed by PBS wash and detection of bound antibody with NBT-BCIP (Biorad) as substrate. ECM molecules and antibodies were routinely biotinylated and used in such an assay configuration.
Assays were routinely performed in triplicate or quadruplicate, and repeated at least 3 times to derive an IC50 from an unweighted sigmoid curve fit. Results were normalized against external control peptides to allow intra-assay comparison.

[3] = tested on: human melanoma and carcinoma cell lines; experiment: αV-mediated cell attachment to vitronectin, cell line panel; format: cell-based
Method: (§2) Cell Attachment Assays were as previously described (Goodman et al., 1991), using hexosaminidase activity (Landegren, 1984) to detect attached cells. Dilutions and cell suspensions were in attachment buffer (RPMI, 1% BSA, 25 mM HEPES; pH 7.4). Matrix proteins were coated onto 96- or 48-well plates, the wells were blocked with BSA and serially diluted MAbs were added to the wells followed by cells (2.5×10^4 -5×10^4). After 1 h at 37° C., non-adherent cells were washed away and attached cells counted against a standard curve run in parallel. Inhibition of attachment was calculated by using wells with no MAbs as reference. Typically, over 70% of added cells had attached to vitronectin at 1 h. Cell attachment to wells coated with BSA alone was routinely less than 5% of specifically attached cells.

B16F10 cells [4] = experiment: Flow cytometry (FACS) on B16F10; format: binding; conditions: murine cell
Method: (§3) Cells were harvested with EDTA, washed, and 10^6 cells in PBS-1% BSA were incubated with MAb (10 μg ml^-1; 20 min, 4° C.). After washing and labelling (20 min, 4° C.) with goat anti-mouse Ig-FITC (Becton Dickinson), cells were incubated with propidium iodide before flow cytometry analysis (EPICS Profile II, Coulter). Living cells were selected by appropriate gates on the side and forward scatter. Fluorescein was excited at 488 nm with an argon ion laser and the emitted fluorescence (525 nm) was recorded. In some experiments, M21-L cells were stained following a brief fixation and permeabilization step (70% ethanol; 5 min×-20° C.).

M21 cells [5] = experiment: DNA synthesis ([3H]-thymidine incorporation) in M21; format: cell-based, human; parameters: dose or concentration left out as unconfirmed
Method: as §1

purified αvβ3 = experiment: ELISA on purified αvβ3; format: binding, human
M21-L-IIb cells = experiment: Flow cytometry (FACS) on M21-L-IIb; format: binding, human; conditions: relative to secondary antibody only
Method: as §3

M21-L4 cells = experiment: Flow cytometry (FACS) on M21-L4; format: binding, human; conditions: relative to secondary antibody only
Method: as §3

B16F10 cells [6] = experiment: B16F10 cell attachment to vitronectin; format: cell-based; conditions: murine cell
Method: as §2

M21 cells [7] = experiment: M21 cell attachment to laminin and collagen; format: cell-based, human; conditions: M21, FIG. 5
Method: as §2

αvβ1 (V+B2 cells) = experiment: Cell attachment to vitronectin mediated by αvβ1 (V+B2 cells); format: cell-based; conditions: FIG. 11
Method: as §2

αvβ5 (UCLA-P3 cells) = experiment: Cell attachment to vitronectin mediated by αvβ5 (UCLA-P3 cells); format: cell-based, human
Method: as §2

M21-L12 cells = experiment: Flow cytometry (FACS) on M21-L12; format: binding, human; conditions: relative to secondary antibody only
Method: as §3

M21 tumors = experiment: Subcutaneous M21 tumor development in nude mice; format: in vivo, BALB/c nu/nu mice
Method: (§4) Tumor cells in exponential growth were harvested with EDTA, washed and examined for viability by trypan blue dye exclusion. Viability was between 96-99%. For primary tumor growth, cells (0.5×10^6 cells in 0.2 ml PBS++) were injected subcutaneously into the flanks of nude mice. Tumor growth was followed by measuring tumor diameters with callipers and the tumor volume was calculated using an approximated formula for a prolate ellipsoid: […]
(§5) where a is the longest axis of the tumor and b the shortest. A minimum of eight animals was used per group.
(§6) For experimental lung metastasis, cells were harvested (0.05% Trypsin/0.02%EDTA) and were injected into the tail vein of nude mice (0.5×10^6 cells in 0.2 ml PBS++). 7 weeks later the animals were sacrificed, the lungs removed and fixed in a Bouins' solution, and the tumor foci on the surface of the lungs counted. For antibody treatment, harvested and washed cells were incubated with purified endotoxin free MAbs (70 μg per 10^6 cells 0.5 ml PBS++) for 30 min at 20° C. in an end-over-end rotator before dilution to 0.5×10^6 cells in 0.2 ml PBS and injection. Cells viability was assessed by Trypan blue dye exclusion before and after completing the injection schedule, where no significant difference was found (viability pre-injection=viability post injection ±5%). The tumor inhibition data was assessed using the 2-tailed Student T-test.

UCLA-P3 cells = experiment: Flow cytometry (FACS) on UCLA-P3; format: binding, human; conditions: relative to secondary antibody only
Method: as §3

WM793 cells [8] = experiment: Flow cytometry (FACS) on WM793; format: binding, human; conditions: relative to secondary antibody only
Method: as §3

M21 cells [9] = experiment: M21 cell attachment to vitronectin; format: cell-based, human; conditions: maximal block
Method: as §2

M21 cells [10] = experiment: Flow cytometry (FACS) on M21; format: binding, human
Method: as §3

[11] = tested on: αvβ3 (WM164 and M21 cells); experiment: Cell attachment to vitronectin mediated by αvβ3 (WM164 and M21 cells); format: cell-based, human; conditions: FIG. 11
Method: as §2

M21 cells [12] = experiment: Complement dependent cytotoxicity (CDC); format: cell-based, human; conditions: not shown
Method: M21 cells (10,000) were plated in a 96-well plate with 50 μl of complete medium and 20 μl of antibodies. Rabbit serum (50 μl, 1:5; Behring) was added as source of complement and plate was incubated (37° C.; 60 min). Lysis was quantified by MTT technique (Mosmann, 1983). Percent of lysis was calculated using wells with 1% Tween-20 as 100% lysed controls, and without antibody as 0% lysed control.

M21-L cells = experiment: Flow cytometry (FACS) on M21-L; format: binding, human; conditions: relative to secondary antibody only
Method: as §3

M21 cells [13] = experiment: M21 cell proliferation assay; format: cell-based, human; parameters: dose or concentration left out as unconfirmed; conditions: M21, antibody (FIG. 8a)
Method: […] Growth and viability were estimated by Trypan blue dye exclusion. Activation was measured by the MTT assay as described above, and cell numbers were counted daily using a cell counter (Coulter electronics).

M21 tumor foci = experiment: Lung colonization experimental metastasis assay; format: in vivo, BALB/C nu/nu mice
Method: as §6

M21 cells [14] = experiment: Antibody-directed cellular cytotoxicity (ADCC) with BALB/c microglia; format: cell-based, human; conditions: up to 10^-7 M, murine microglia effector cells
Method: Preparation of BALB/C microglial cells and conditions for ADCC and antibody-effector cell mediated cytostasis (AECM) were essentially as described (Sutter et al., 1991). M21 cells were pulsed for 18 h with ^3 H-thymidine (18 kBq per 4×10^3 cells per well) and incubated on 96-well plates with BALB/C microglia (5×10^4 cells per well) in 200 μl DMEM/FCS (10%) in the presence of antibodies. After 48 hrs, [^3 H] label retained in the nuclear compartment of target cells was measured. MAb dependent cytotoxicity was calculated using the formula: [(experimental ccpm-spontaneous ccpm)/(maximum ccpm-spontaneous ccpm)]×100.

WM793 cells [15] = experiment: WM793 cell attachment to vitronectin; format: cell-based, human; conditions: FIG. 4e,f
Method: as §2

M21-L = experiment: Subcutaneous M21-L tumor development in nude mice; format: in vivo, BALB/c nu/nu mice; conditions: FIG. 7b
Method: as §4, §5, §6

Molecule: RGDS: RGD-peptide (SEQ ID NO:6)
serum half-life [1]: 8 min

Molecule: CC(=O)O[C@H]1C(=O)[C@@]2(C)[C@H]([C@H](OC(=O)c3ccccc3)[C@]3(O)C[C@H](OC(=O)[C@H](O)[C@@H](NC(=O)c4ccccc4)c4ccccc4)C(C)=C1C3(C)C)[C@]1(OC(C)=O)CO[C@@H]1C[C@@H]2O [Taxol]
DNA synthesis, positive control [2]: completely suppresses

Molecule: GRGDSPK [Gly-Arg-Gly-Asp-Ser-Pro-Lys]
IC50 (αvβ3): ~2000 nM

IC50 in cellular assay [3]: ~ 100 ng ml^-1 | IC50 ([3]; antibody MW 150,000, read-out: IC50, αV-mediated cell attachment): 0.3 to 1 nM | 50% binding to αvβ3 in ELISA (purified αvβ3; screening ELISA): 10 to 20 ng/mL | EC50 (purified αvβ3; screening ELISA, read-out: 50% binding to αvβ3 in ELISA): 0.05 to 0.1 nM | IC50, cell attachment mediated by αvβ1 (V+B2 cells) (αvβ1 (V+B2 cells)): ~ 0.1 μg ml^-1 | IC50, attachment to vitronectin on αvβ5 (UCLAP3) (αvβ5 (UCLA-P3 cells); FIG. 4c,d): ~ 30 ng ml^-1 | IC50, cell attachment mediated by αvβ5 (UCLA-P3 cells) (αvβ5 (UCLA-P3 cells); vitronectin, FIG. 11): ~ 0.1 μg ml^-1 | IC50, αvβ3 attachment (WM164 and M21 cells) [11]: ~ 0.5 μg ml^-1 | IC50, WM793 attachment to vitronectin (WM793 cells [15]): ~ 60 ng ml^-1
B1: 17E6: murine IgG1 monoclonal antibody against human αv-integrin chain, from hybridoma 272-17E6 (DSM ACC2160) (antibody, V domains shown)
VH: QVQLQQSGAELAEPGASVKMSCKASGYTFSSFWMHWVKQRPGQGLEWIGYINPRSGYTECNEIFRDKATMTADTSSSTAYMQLSGLTSEDSAVYYCASFLGRGAMDYWGQGTSVTVSS
VL: DIQMTQTTSSLSASLGDRVIISCRASQDISNYLSWYQQKPDGTVKLLIFYTSKLHSGVPSRFSGSGSGTDYSLTISNLDQEDIATYFCQQGNTFPYTFGGGTKVEMR
initial attachment to vitronectin of cells reacting in FACS with 17E6 ([3]; hybridoma supernatants, FIG. 3): strongly blocked | FACS reaction with B16F10 (B16F10 cells [4]): did not react | thymidine incorporation in M21 cells (M21 cells [5]): no effect | 50% saturation in ELISA on isolated αvβ3 (purified αvβ3; FIG. 10): ~ 1 ng ml^-1 | Reactivity in flow cytometry, M21-L-llb (αllbβ3) (M21-L-IIb cells): - (1-2 (-)) | Reactivity in flow cytometry, M21-L4 (M21-L4 cells): ++ (4-9 (++)) | B16F10 attachment on vitronectin (B16F10 cells [6]): not affected | cell attachment to other matrix substrates (laminin, collagen) (M21 cells [7]): lack of effect | Reactivity in flow cytometry, M21-L12 (M21-L12 cells): - (1-2 (-)) | tumors and metastases at sacrifice (M21 tumors; 6 months, lungs, liver, kidney, spleen, colon, stomach, body cavities): neither subcutaneous tumors nor metastases | tumors taken in the presence of antibody (M21 tumors; M21 cells subcutaneously co-injected with antibody): 0/32 | experiments in which subcutaneous development of M21 tumors was blocked (M21 tumors; mouse, in vivo): 4/4 | time animals remain tumor free (M21 tumors; mouse, in vivo): > 6 months | Reactivity in flow cytometry, UCLA-P3 (αvβ5) (UCLA-P3 cells): +++ (>9 (+++)) | Reactivity in flow cytometry, WM793 (αvβ3; αvβ5) (WM793 cells [8]): +++ (>9 (+++)) | block of M21 initial attachment to vitronectin (M21 cells [9]): ~ 85% and ~ 90% | Reactivity in flow cytometry, M21 (αvβ3; αvβ5) (M21 cells [10]; relative to secondary antibody only, MAb 10 μg ml^-1): ++ (4-9 (++)) | FACS reaction with M21 (M21 cells [10]; αv-expressing line): strongly | complement mediated lysis on M21 cells (M21 cells [12]): did not affect | Reactivity in flow cytometry, M21-L (M21-L cells): - (1-2 (-)) | kinetic of cell growth and saturation density (M21 cells [13]): not greatly influenced | Tumor Take (M21 tumor foci; 7 weeks after tail vein injection): 78 | Number of Tumor Foci, Mean ± SEM (M21 tumor foci; lung surface, 7 weeks): 8 ± 7.7 | Number of Tumor Foci, Median (M21 tumor foci; lung surface, 7 weeks): 5 | reduction of numbers of tumor colonies (M21 tumor foci; pre-incubation of M21 with antibody, tail-vein injection): 90% | % Control (M21 tumor foci; tumor foci relative to M21 control): 9% | ADCC against M21 (M21 cells [14]): did not mediate ADCC | subcutaneous M21-L growth / take (M21-L): unaffected
